Experiments:
Agp2 = biological target: T1, Agp2 (Agrobacterium fabrum, UniProt A9CI81); assay: UV/vis absorbance after chromophore assembly and desalting; format: binding; settings: covalent (Cys13); threefold molar excess BV, 2 h, RT, pH 7.8, 1 mM TCEP; Atto-495 labelled afterwards
T1 construct: gene Atu2165; full length (PAS-GAF-PHY-histidine kinase-response regulator), C-terminal His6, E. coli DH5-alpha, pAg2 (pET21b-based), purified apoprotein, homodimer
T1 sequence (A9CI81 1-850): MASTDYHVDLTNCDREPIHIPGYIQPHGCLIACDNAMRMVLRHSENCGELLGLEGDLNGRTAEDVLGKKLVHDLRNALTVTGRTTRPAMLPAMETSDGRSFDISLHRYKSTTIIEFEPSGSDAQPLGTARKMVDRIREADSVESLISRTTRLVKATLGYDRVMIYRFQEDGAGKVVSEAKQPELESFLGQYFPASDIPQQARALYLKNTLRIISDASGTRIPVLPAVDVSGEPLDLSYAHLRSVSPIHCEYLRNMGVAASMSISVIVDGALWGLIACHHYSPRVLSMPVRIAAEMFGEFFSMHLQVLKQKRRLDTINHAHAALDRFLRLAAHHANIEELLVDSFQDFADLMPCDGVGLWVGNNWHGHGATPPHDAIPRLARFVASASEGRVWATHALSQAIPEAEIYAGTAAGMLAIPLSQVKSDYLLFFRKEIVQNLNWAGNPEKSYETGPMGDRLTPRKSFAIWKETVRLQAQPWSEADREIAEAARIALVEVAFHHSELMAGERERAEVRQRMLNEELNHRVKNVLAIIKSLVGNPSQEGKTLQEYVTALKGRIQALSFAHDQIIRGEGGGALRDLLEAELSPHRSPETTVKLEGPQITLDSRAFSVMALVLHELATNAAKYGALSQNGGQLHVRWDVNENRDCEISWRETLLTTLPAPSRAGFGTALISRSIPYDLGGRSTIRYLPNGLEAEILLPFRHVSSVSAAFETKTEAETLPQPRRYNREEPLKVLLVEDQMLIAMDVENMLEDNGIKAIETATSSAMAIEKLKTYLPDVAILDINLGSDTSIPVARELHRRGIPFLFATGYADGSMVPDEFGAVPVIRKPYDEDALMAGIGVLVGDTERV

Agp2-PCM = biological target: T2, Agp2-PCM (Agrobacterium fabrum, UniProt A9CI81); assay: as above; format: binding; settings: covalent (Cys13); threefold molar excess BV, 2 h, RT, pH 7.8, 1 mM TCEP; Atto-495 labelled afterwards
T2 construct: gene Atu2165; photosensory chromophore module (PAS, GAF, PHY)
T2 sequence (A9CI81 1-501): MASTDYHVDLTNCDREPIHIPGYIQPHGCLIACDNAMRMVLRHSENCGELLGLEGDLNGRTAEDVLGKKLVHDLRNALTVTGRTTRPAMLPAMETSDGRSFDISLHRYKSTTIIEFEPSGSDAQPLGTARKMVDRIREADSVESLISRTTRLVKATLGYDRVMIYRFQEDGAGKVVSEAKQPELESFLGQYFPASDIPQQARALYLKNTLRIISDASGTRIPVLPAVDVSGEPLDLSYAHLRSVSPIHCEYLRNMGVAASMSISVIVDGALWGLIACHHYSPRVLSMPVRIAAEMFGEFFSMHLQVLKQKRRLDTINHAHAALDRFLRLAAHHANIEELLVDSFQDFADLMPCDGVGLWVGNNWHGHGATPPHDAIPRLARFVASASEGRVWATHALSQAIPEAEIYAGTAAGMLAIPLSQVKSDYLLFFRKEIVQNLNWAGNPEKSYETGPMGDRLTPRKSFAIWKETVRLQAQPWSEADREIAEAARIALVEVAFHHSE
Description: UV/vis absorbance after chromophore assembly and desalting on Agp2-PCM

[1] = biological target: Agp2, full length wild-type A. fabrum phytochrome, labeled with Atto-495 (Agrobacterium fabrum); assay: FRET or BRET
[2] = biological target: Agp2-PCM, photosensory chromophore module of Agp2, labeled with Atto-495 (Agrobacterium fabrum); assay: FRET or BRET

Molecule	E FRET (FRET transfer efficiency) [1]	further results
C=CC1=C(C)/C(=C/C2=NC(=C\c3[nH]c(/C=C4\NC(=O)C(C)=C4C=C)c(C)c3CCC(=O)O)/C(CCC(=O)O)=C2C)NC1=O [Biliverdin]		Agp2 (Agp2): 0.70 ± 0.04 mol/mol; Agp2 PCM (Agp2-PCM): 0.98 ± 0.01 mol/mol
Agp1 A362C, full-length A. fabrum phytochrome Agp1 mutant labeled with Atto-565 (natural protein)	0.1	
Agp1 K517C, full-length A. fabrum phytochrome Agp1 mutant labeled with Atto-565 (natural protein)	0.15	E FRET (FRET transfer efficiency) [2]: 0.14
Agp1 K554C, full-length A. fabrum phytochrome Agp1 mutant labeled with Atto-565 (natural protein)	0.28	
Agp1 R535C, full-length A. fabrum phytochrome Agp1 mutant labeled with Atto-565 (natural protein)	0.21	
Agp1 R603C, full-length A. fabrum phytochrome Agp1 mutant labeled with Atto-565 (natural protein)	0.2	
Agp1 S122C, full-length A. fabrum phytochrome Agp1 mutant labeled with Atto-565 (natural protein)	0.09	

From article PMC11931990, “Interaction between bacterial phytochromes Agp1 and Agp2 of Agrobacterium fabrum by fluorescence resonance energy transfer and docking studies” (Febs Letters, 2025)
